Measured values: the supplement of paper PMC10126150
± gives the standard deviation of the averaged measurements.

tested on: ATP; assay: switch fluorescence ratio, 500 uM ATP over buffer (Cy3 cluster intensity, sum of 5 cycles each) (fold (ratio)); higher = stronger signal-on switching upon ATP binding; sequences stand for … in TCGTCGGCAGCGTCAGATGTGTATAAGAGACAGTTTTTTTTTTTTTTTTTTTTTTTTT…TC; settings: aptamer strand: ATP DNA aptamer (quencher-CACCTGGGGGAGTATTGCGGAGGAAGG + anchor), 100 nM annealed; ATP concentration: 500 uM
In short: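 Clusters with intensities outside 100-1000 RFU were excluded. The remaining Cy3-labelled switching-strand clusters on a modified Illumina MiSeq flow-cell had been annealed to 100 nM quencher-labelled ATP aptamer and imaged in selection buffer, then after 15 min with 500 uM ATP at 22 °C, for five cycles separated by NaOH stripping and re-annealing. The fluorescence ratio, averaged per switch-domain sequence, is each cluster's summed target-cycle Cy3 intensity over its summed buffer-cycle Cy3 intensity.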
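Also: ATP exposure 15 min at 22 °C before imaging.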

Sequence | switch fluorescence ratio
GAGGGGTCCT | 1.24 ± 0.39
GAGGGGTGAC | 0.979 ± 0.021
GAGGGGTGGT | 0.987 ± 0.029
GAGGGGTTTT | 1.01 ± 0.04
GAGGGTAGCG | 0.96 ± 0.059
GAGGGTATAG | 1.02 ± 0.085
GAGGGTTGGG | 1.06 ± 0.045
GAGGGTTGTT | 0.997 ± 0.019
GAGGTAAGGG | 0.998 ± 0.029
GAGGTAATGT | 1.039 ± 0.0025
GAGGTACGCT | 1.01 ± 0.021
GAGGTACTTG | 0.975 ± 0.039
GAGGTAGATA | 1.03 ± 0.046
GAGGTCAGGT | 1.01 ± 0.021
GAGGTCGGCA | 1.02 ± 0.011
GAGGTGAGAG | 1.02 ± 0.058
GAGGTGAGGG | 1 ± 0.057
GAGGTGCAGG | 0.9932 ± 0.008
GAGGTGCGGG | 0.99 ± 0.023
GAGGTGCGGT | 0.975 ± 0.049
GAGGTGGGGA | 0.9826 ± 0.0055
GAGGTGGTGC | 0.966 ± 0.072
GAGGTGGTGG | 0.998 ± 0.036
GAGGTTATCA | 1.01 ± 0.013
GAGGTTGACA | 1.03 ± 0.017

Sequence | switch fluorescence ratio
GAGGTTGGAG | 1 ± 0.00098
GAGGTTGGCA | 0.994 ± 0.01
GAGGTTTAGG | 0.986 ± 0.042
GAGGTTTGCG | 0.965 ± 0.028
GAGGTTTTTA | 0.986 ± 0.027
GAGGTTTTTG | 0.994 ± 0.032
GAGTAAAAAG | 0.99 ± 0.014
GAGTAAATTG | 0.987 ± 0.019
GAGTAACGGT | 1.03 ± 0.027
GAGTAACTGT | 0.966 ± 0.016
GAGTAAGAGT | 1.0175 ± 0.00091
GAGTAATTGT | 0.9975 ± 0.0042
GAGTACGAGT | 1.0098 ± 0.001
GAGTACTTTG | 0.9847 ± 0.0015
GAGTAGAGTG | 0.957 ± 0.026
GAGTAGCGGT | 1.01 ± 0.026
GAGTAGGAGG | 0.974 ± 0.051
GAGTAGGGGA | 0.97 ± 0.055
GAGTATAAGC | 0.9844 ± 0.0069
GAGTATGAAG | 1.01 ± 0.031
GAGTATGCCC | 1.02 ± 0.039
GAGTATTATA | 1 ± 0.025
GAGTCCAGGG | 1.21 ± 0.27
GAGTCGCCTG | 0.991 ± 0.037
GAGTGAAATG | 1.02 ± 0.023

Sequence | switch fluorescence ratio
GAGTGACGGA | 1 ± 0.054
GAGTGCGGCT | 1.07 ± 0.16
GAGTGCGGGC | 1.07 ± 0.068
GAGTGGAGAC | 0.977 ± 0.053
GAGTGGAGGC | 1.03 ± 0.05
GAGTGGATAG | 0.996 ± 0.018
GAGTGGGGAG | 0.968 ± 0.045
GAGTGGGGGC | 1.01 ± 0.054
GAGTGGGGGT | 0.977 ± 0.032
GAGTGTCAGC | 1 ± 0.035
GAGTGTGTTC | 1.01 ± 0.024
GAGTTAAACA | 0.994 ± 0.021
GAGTTAACGG | 1 ± 0.0026
GAGTTACGGC | 1.22 ± 0.26
GAGTTACTTT | 1.02 ± 0.023
GAGTTATGGG | 0.9963 ± 0.0048
GAGTTGACGG | 1.03 ± 0.013
GAGTTGGAAG | 1.009 ± 0.0071
GAGTTGGGTC | 1.02 ± 0.021
GAGTTGTCAA | 0.972 ± 0.033
GAGTTGTGAT | 1 ± 0.019
GAGTTGTGCG | 0.9969 ± 0.001
GAGTTTATGG | 0.984 ± 0.029
GAGTTTGACC | 0.965 ± 0.03
GAGTTTGCGT | 1.03 ± 0.015

Sequence | switch fluorescence ratio
GAGTTTGGAC | 0.985 ± 0.058
GAGTTTGTCC | 0.998 ± 0.012
GAGTTTTTGT | 1.01 ± 0.017
GATAAATTTT | 0.974 ± 0.023
GATAACATGT | 1.02 ± 0.029
GATAAGAGCG | 0.975 ± 0.029
GATAAGTATG | 0.975 ± 0.015
GATAATAATG | 1.02 ± 0.0061
GATAATGGGT | 0.976 ± 0.042
GATAATGGTT | 0.964 ± 0.011
GATAATTGGG | 0.9992 ± 0.0079
GATACATGCT | 0.979 ± 0.036
GATACCATGG | 0.985 ± 0.03
GATACCTATG | 1.03 ± 0.027
GATACGCCAC | 2.11 ± 0.06
GATACGTAGG | 1.009 ± 0.0049
GATACTATTT | 0.98 ± 0.03
GATACTCTTA | 1.021 ± 0.0081
GATACTGATC | 1.13 ± 0.042
GATACTGGGT | 0.995 ± 0.046
GATAGAAAGC | 0.9852 ± 0.0027
GATAGACGCA | 1.1 ± 0.089
GATAGACTTA | 0.949 ± 0.03
GATAGAGGGT | 1.01 ± 0.033
GATAGAGGTG | 1.32 ± 0.62

Sequence | switch fluorescence ratio
GATAGATCAG | 0.993 ± 0.018
GATAGGAAAC | 1.12 ± 0.12
GATAGGGAGG | 0.993 ± 0.016
GATAGGGGCG | 0.998 ± 0.026
GATAGGGTGC | 1.14 ± 0.044
GATAGGTGAG | 1.01 ± 0.024
GATAGGTGGT | 0.9691 ± 0.0046
GATAGTTCGT | 1.01 ± 0.021
GATAGTTTAC | 1.01 ± 0.044
GATAGTTTTG | 0.9856 ± 0.0089
GATAGTTTTT | 0.985 ± 0.03
GATATAAAGA | 0.994 ± 0.046
GATATAACAT | 1.028 ± 0.0025
GATATAAGGG | 0.979 ± 0.042
GATATAATGG | 0.9999 ± 0.0019
GATATCCGTA | 0.962 ± 0.015
GATATGGGTA | 1.02 ± 0.035
GATATTAGTG | 0.9827 ± 0.0044
GATATTTAGT | 0.995 ± 0.011
GATATTTCCC | 0.9981 ± 0.0064
GATATTTTAG | 1.009 ± 0.0087
GATATTTTGT | 0.997 ± 0.031
GATCAACTGT | 1 ± 0.032
GATCAAGGCA | 1.017 ± 0.0012
GATCACAGGG | 1.13 ± 0.01

Sequence | switch fluorescence ratio
GATCATAGTT | 0.995 ± 0.013
GATCATCAGG | 1 ± 0.012
GATCATGGGA | 1.03 ± 0.093
GATCGAACGT | 1.017 ± 0.0085
GATCGCCCCG | 1 ± 0.02
GATCGGAGCG | 1.04 ± 0.047
GATCGGAGGG | 1.01 ± 0.027
GATCGGGCCG | 0.975 ± 0.052
GATCGGGGTA | 1.014 ± 0.0071
GATCGTGAGT | 1 ± 0.015
GATCTAAAAC | 0.9594 ± 0.0053
GATCTAGTTA | 0.996 ± 0.054
GATCTATTGT | 0.9619 ± 0.0088
GATCTCAGTT | 1.02 ± 0.036
GATCTCGTGG | 1.01 ± 0.056
GATCTGAAGT | 1.02 ± 0.012
GATCTGGGTT | 0.994 ± 0.031
GATCTTAACG | 0.9912 ± 0.0096
GATCTTTCTG | 0.994 ± 0.041
GATGAAGCCT | 1.17 ± 0.035
GATGAAGGTT | 0.992 ± 0.027
GATGAATTAG | 1.005 ± 0.0082
GATGACACGA | 1.033 ± 0.01
GATGACAGAG | 0.974 ± 0.047
GATGACCTCA | 0.998 ± 0.093

Sequence | switch fluorescence ratio
GATGAGGTGT | 1.01 ± 0.036
GATGATGTGT | 1.02 ± 0.031
GATGATGTTC | 0.9439 ± 0.0072
GATGCAAGGG | 1.83 ± 0.14
GATGCAGTAT | 1.12 ± 0.044
GATGCGGCTA | 1.02 ± 0.018
GATGCTAGAC | 3 ± 0.11
GATGCTGTGG | 0.958 ± 0.003
GATGCTTCTG | 1.02 ± 0.032
GATGGAACTA | 1.01 ± 0.034
GATGGAACTT | 1.02 ± 0.053
GATGGAGTTC | 0.983 ± 0.029
GATGGAGTTT | 1.03 ± 0.011
GATGGATTTG | 1.02 ± 0.033
GATGGCAGCG | 1.05 ± 0.045
GATGGCATAA | 1.01 ± 0.025
GATGGCATCG | 1.02 ± 0.014
GATGGCCATT | 1.02 ± 0.018
GATGGCCGTG | 0.978 ± 0.018
GATGGCGGGA | 1.02 ± 0.025
GATGGGAAAA | 1.01 ± 0.021
GATGGGCTAG | 0.997 ± 0.025
GATGGGGGTA | 0.973 ± 0.033
GATGGGTTTG | 0.991 ± 0.028
GATGGTAATT | 1 ± 0.025

Sequence | switch fluorescence ratio
GATGGTGTGC | 1.15 ± 0.29
GATGGTTAGT | 0.974 ± 0.036
GATGTAAACC | 1.01 ± 0.02
GATGTAATCT | 1.02 ± 0.025
GATGTAATTT | 1.03 ± 0.023
GATGTACCTC | 1.05 ± 0.0046
GATGTAGCTA | 1.033 ± 0.00083
GATGTAGGTG | 1.007 ± 0.0071
GATGTAGTAG | 1.01 ± 0.042
GATGTCGAGA | 1.019 ± 0.0051
GATGTCGCGC | 1.01 ± 0.028
GATGTCTGCT | 1.019 ± 0.0098
GATGTGATTT | 1.08 ± 0.078
GATGTGCTTG | 1.01 ± 0.013
GATGTGGGGT | 0.987 ± 0.012
GATGTGGTGT | 0.984 ± 0.081
GATGTGTGGG | 0.9843 ± 0.0015
GATGTGTTCT | 0.988 ± 0.042
GATGTTAGGA | 0.978 ± 0.034
GATGTTATAA | 1 ± 0.029
GATGTTCCGT | 0.9958 ± 0.0049
GATGTTGCTT | 1.02 ± 0.055
GATTAAAGGT | 1.01 ± 0.025
GATTAACGCT | 1.03 ± 0.026
GATTAACGTT | 0.971 ± 0.036
